{
  "source": "patent US20080269106A1",
  "about": "“Methods and Compositions for Diagnosis and Treatment of Disorders Involving Macrophages” (priority 2005, published 2008)",
  "key": {"[1]": {"molecular_target": "T1, androgen receptor (AR) (Homo sapiens, UniProt P10275)", "T1 construct": "endogenous in cells; host or cells: RWPE1 prostate cells", "T1 sequence (P10275 1-920)": "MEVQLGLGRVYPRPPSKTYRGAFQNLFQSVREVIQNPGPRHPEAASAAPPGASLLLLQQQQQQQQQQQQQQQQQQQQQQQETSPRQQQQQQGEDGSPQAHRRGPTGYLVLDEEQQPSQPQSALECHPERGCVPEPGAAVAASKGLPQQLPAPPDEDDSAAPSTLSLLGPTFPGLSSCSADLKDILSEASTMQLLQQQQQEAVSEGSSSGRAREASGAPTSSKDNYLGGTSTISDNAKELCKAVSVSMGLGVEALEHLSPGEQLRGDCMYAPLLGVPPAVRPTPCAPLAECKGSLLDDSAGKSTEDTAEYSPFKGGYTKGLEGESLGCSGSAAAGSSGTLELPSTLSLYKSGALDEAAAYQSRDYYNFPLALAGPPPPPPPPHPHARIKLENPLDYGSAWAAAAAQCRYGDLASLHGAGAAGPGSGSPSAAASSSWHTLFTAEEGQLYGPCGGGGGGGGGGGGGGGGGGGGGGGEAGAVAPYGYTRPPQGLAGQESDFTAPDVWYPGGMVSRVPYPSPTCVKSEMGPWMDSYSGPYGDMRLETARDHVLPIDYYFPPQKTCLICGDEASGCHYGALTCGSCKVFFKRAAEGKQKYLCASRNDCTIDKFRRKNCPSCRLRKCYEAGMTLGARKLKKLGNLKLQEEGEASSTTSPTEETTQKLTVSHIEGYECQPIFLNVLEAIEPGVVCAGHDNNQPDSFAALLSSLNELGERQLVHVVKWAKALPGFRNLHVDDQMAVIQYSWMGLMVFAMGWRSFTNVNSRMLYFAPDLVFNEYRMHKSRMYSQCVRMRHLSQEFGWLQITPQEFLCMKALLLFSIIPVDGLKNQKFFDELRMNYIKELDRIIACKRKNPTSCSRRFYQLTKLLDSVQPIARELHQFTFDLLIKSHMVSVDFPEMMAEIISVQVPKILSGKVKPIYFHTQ", "assay": "PSA promoter reporter, single cell nuclear microinjection in RWPE1 cells", "format": "cell-based", "settings": "for effect on IL-1β-mediated activator function of bicalutamide: 14mer peptide microinjected, PSA promoter- or ARE-dependent reporters", "text": "One representative of three independent experiments is shown."}, "[2]": {"system": "RARα fusion proteins (AR-N′/RAR, ER-N′/RAR)", "assay": "RARα-dependent reporter with AR-N'/RAR and ER-N'/RAR fusion receptors, single cell microinjection", "format": "cell-based"}, "[3]": {"system": "BMP7", "assay": "Semi-quantitative RT-PCR of BMP7 in MCF-7 breast cancer cells", "format": "cell-based", "settings": "MCF-7 cells", "method": "Semi-quantitative RT-PCR was carried out as described (Zhu et al, 2004). Primers were: […]\n(§1) Actin was used as the loading control. […] A BMP7 promoter-controlled LacZ reporter and an ERα expression plasmid were injected into cells. […] Wild-type ERα and Erα (E203A/G204A) were cotransfected with the reporter in 293 cells. […] Primer pair #1 flanks two putative ERE half-sites, and primer pair #2 (control) flanks a region ˜3 kb upstream of #1.\nThis is particularly relevant in light of the fact that a key aspect of reproductive regulation, blastocyst implantation, involves a local induction of BMP7 in response to inflammatory signals (Monroe et al., 2000; Paria et al., 2001)."}, "[4]": {"molecular_target": "estrogen receptor-α (ERα) (Homo sapiens, UniProt P03372)", "settings": "cells null for either MEKK1 or TAB2", "excerpt": "Wild-type MEKK1, C478A MEKK1 (mutant of ubiquitin ligase activity), or D1369A MEKK1 (mutant of kinase activity) was used to rescue IL-1β-dependent activation of the pS2 promoter by 4-OHT in MEFs from MEKK−/− mice."}, "[5]": {"molecular_target": "T1, androgen receptor (AR)", "assay": "ARE-dependent lacZ reporter, single cell nuclear microinjection", "format": "cell-based", "settings": "presence of bicalutamide", "description": "Specific IgGs against AR, N-CoR, TAB2, HDAC3, HDAC2, HDAC1, Sin3, or MBD3 were used to immunoprecipitate protein-bound DNA fragments. […] The bound material was eluted and divided into several aliquots, and re-immunoprecipitated with antibodies as shown (2nd IP).\nCells were stained with antibodies directed against the N-CoR, and the fluorescence-conjugated secondary antibody was visualized using deconvoluting microscopy. Merged images with nuclear staining with DAPI are shown. […] 5 ng/ml of leptomycin B (LMB), a nuclear export inhibitor, was also used for 30 min followed by treatment with 10 ng/ml of IL-1β."}, "[6]": {"molecular_target": "T2, ERα (Homo sapiens, UniProt P03372)", "T2 sequence (P03372 1-595)": "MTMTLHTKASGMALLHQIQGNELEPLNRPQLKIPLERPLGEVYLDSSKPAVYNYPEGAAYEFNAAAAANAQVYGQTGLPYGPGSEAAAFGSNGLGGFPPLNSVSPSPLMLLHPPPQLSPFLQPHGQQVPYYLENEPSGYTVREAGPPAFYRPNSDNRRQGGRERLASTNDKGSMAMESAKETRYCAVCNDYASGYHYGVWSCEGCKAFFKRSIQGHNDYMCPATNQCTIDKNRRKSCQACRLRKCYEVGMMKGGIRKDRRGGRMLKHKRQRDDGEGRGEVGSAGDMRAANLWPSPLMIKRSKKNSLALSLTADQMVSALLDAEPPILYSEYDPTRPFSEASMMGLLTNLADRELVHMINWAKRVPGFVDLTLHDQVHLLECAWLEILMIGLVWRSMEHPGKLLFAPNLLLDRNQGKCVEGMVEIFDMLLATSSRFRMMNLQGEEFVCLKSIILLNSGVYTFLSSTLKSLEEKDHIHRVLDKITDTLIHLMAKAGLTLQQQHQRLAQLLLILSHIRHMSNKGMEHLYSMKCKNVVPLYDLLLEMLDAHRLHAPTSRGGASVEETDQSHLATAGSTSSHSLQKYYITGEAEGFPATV", "assay": "Luciferase reporter driven by human BMP7 proximal promoter in 293 cells", "format": "cell-based", "set-up": "expressed in transfected cells; host or cells: 293 cells", "settings": "combination of E2 and IL-1β", "method": "as §1"}, "[7]": {"molecular_target": "T2, ERα", "assay": "BMP7 promoter-controlled LacZ reporter, single cell nuclear microinjection in Rat-1 cells", "format": "cell-based", "set-up": "expressed in transfected cells; host or cells: Rat-1 cells", "settings": "added to E2", "method": "as §1"}, "[8]": {"molecular_target": "T3, endogenous TAB2 (UniProt Q9NYJ8 1-693)", "T3 construct": "Endogenous protein, detected with anti-TAB2 IgG", "T3 sequence (looked up)": "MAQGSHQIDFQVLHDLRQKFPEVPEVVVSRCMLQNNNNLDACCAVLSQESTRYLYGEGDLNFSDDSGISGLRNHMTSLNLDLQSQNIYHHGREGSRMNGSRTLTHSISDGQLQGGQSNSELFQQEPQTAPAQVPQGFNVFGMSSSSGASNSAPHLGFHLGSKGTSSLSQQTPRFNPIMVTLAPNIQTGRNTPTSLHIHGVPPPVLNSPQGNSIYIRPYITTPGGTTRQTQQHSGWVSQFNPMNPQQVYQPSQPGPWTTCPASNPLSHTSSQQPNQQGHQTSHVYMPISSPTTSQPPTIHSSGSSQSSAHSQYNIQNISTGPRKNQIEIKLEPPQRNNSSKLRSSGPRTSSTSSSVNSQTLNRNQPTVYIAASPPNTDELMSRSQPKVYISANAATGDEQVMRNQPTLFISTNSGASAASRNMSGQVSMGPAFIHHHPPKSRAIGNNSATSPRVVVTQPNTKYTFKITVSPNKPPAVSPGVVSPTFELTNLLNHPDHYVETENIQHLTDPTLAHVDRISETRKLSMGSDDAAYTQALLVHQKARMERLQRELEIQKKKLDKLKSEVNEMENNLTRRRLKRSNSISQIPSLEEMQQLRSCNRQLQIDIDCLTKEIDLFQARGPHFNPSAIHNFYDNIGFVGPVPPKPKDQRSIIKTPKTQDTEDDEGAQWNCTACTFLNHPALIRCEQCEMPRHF", "assay": "2-step ChIP co-occupancy"}},
  "note": "d = 2'-deoxy (DNA); r = 2'-OH (RNA)",
  "data": [
    {"molecule": "DILSEASTMQLLQQ [14mer synthetic peptide encompassing the AR LX7LL motif]", "values": [
      {"measurement": "effect on IL-1β-mediated activator function of bicalutamide", "setting": "[1]", "result": "specifically blocked"},
      {"measurement": "effect on macrophage-induced agonistic switch of bicalutamide", "setting": "[1]; peptide microinjected into RWPE1 cells pre-treated with TNFα, THP-1 macrophages, PSA promoter-dependent reporter", "result": "blocked"}
    ]},
    {"molecule": "C[C@]12CC[C@@H]3c4ccc(O)cc4CC[C@H]3[C@@H]1CC[C@@H]2O", "note": "[E2, 17-β-estradiol]", "values": [
      {"measurement": "activation of chimeric RARα", "setting": "[2]", "result": "neither E2 nor DHT exerted activation effects"},
      {"measurement": "BMP7 transcript levels", "setting": "[3]", "result": "decreased levels of BMP7 transcripts"}
    ]},
    {"molecule": "4-OH tamoxifen [4-OHT]", "values": [
      {"measurement": "IL-1β-dependent conversion to activator of ERα", "setting": "[4]", "result": "failed to occur"}
    ]},
    {"molecule": "C[C@]12CCC(=O)C[C@@H]1CC[C@@H]1[C@@H]2CC[C@]2(C)[C@@H](O)CC[C@@H]12", "note": "[DHT, Dihydrotestosterone]", "values": [
      {"measurement": "activation of chimeric RARα", "setting": "[2]", "result": "neither E2 nor DHT exerted activation effects"}
    ]},
    {"molecule": "5′-GCACCGAAGUAUUGUCCAAdTdT-3′ (sense GCACCGAAGUAUUGUCCAATT; antisense UUGGACAAUACUUCGGUGCTT; siRNA; sugars from the 5' end r19 d2, backbone not given here) [N-CoR siRNA]", "values": [
      {"measurement": "effect on bicalutamide-dependent repression of ARE reporter", "setting": "[5]", "result": "switch from repression to activation"}
    ]},
    {"molecule": "DIASEASTMQAAQQ [mutated AX7AA (SEQ ID NO:26) sequence]", "values": [
      {"measurement": "effect on IL-1β-mediated activator function of bicalutamide", "setting": "[1]", "result": "failed to inhibit induction"}
    ]},
    {"molecule": "IL-1β: human IL-1β from Calbiochem, pro-inflammatory cytokine", "values": [
      {"measurement": "hBMP7 proximal promoter reporter activity, combination with E2", "setting": "[6]", "result": "restored the reporter activity to the baseline"},
      {"measurement": "effect on E2 inhibition of BMP7 transcripts", "setting": "[3]; added to E2", "result": "blocked this inhibition"},
      {"measurement": "expression of hBMP-7 promoter-controlled reporter on addition to E2", "setting": "[7]", "result": "actively increased expression over the baseline"}
    ]},
    {"molecule": "wild-type RARα (receptor, UniProt P10276 1-462, looked up, also called retinoic acid receptor) MASNSSSCPTPGGGHLNGYPVPPYAFFFPPMLGGLSPPGALTTLQHQLPVSGYSTPSPATIETQSSSSEEIVPSPPSPPPLPRIYKPCFVCQDKSSGYHYGVSACEGCKGFFRRSIQKNMVYTCHRDKNCIINKVTRNRCQYCRLQKCFEVGMSKESVRNDRNKKKKEVPKPECSESYTLTPEVGELIEKVRKAHQETFPALCQLGKYTTNNSSEQRVSLDIDLWDKFSELSTKCIIKTVEFAKQLPGFTTLTIADQITLLKAACLDILILRICTRYTPEQDTMTFSDGLTLNRTQMHNAGFGPLTDLVFAFANQLLPLEMDDAETGLLSAICLICGDRQDLEQPDRVDMLQEPLLEALKVYVRKRRPSRPHMFPKMLMKITDLRSISAKGAERVITLKMEIPGSMPPLIQEMLENSEGLDTLSGQPGGGGRDGGGLAPPPGSCSPSLSPSSNRSSPATHSP", "values": [
      {"measurement": "binding result", "setting": "[8]", "result": "no binding"}
    ]}
  ]
}
